Consider one molecule from paper PMC12386762.

In the assay the target is Escherichia coli RecA (Escherichia coli) (UniProt P0A7G6).
Escherichia coli RecA (Escherichia coli), sequence (P0A7G6 whole entry): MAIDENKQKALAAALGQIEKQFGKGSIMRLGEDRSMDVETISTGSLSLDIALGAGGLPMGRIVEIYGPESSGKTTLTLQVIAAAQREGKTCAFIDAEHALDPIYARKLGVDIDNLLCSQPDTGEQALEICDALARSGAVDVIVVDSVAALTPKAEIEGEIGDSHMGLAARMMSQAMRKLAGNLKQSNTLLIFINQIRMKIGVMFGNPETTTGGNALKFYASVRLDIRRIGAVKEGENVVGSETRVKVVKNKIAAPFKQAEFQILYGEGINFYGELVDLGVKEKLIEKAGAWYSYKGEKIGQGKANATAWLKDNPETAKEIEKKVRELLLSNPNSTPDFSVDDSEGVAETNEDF

B1: Bacillus subtilis DprA (natural protein)
chain: MDQAAVCLTICRINQLLSPSLLLKWWKADPSMSLTSPVLQTVTRDQIKAAALKNEIEQFYPKLPRVLAAYREQGINTIPISSKQYPFWLKSIYDPPAVLFAKGDMTLLSKGRKIGIVGTRNPTAYGKQVVNHLTKEICRKGWVIVSGLASGIDGMSHAASIKAKGRTIGVIAGGFQHIYPRENLQLADHMAKHHILLSEHPPETKPQKWHFPMRNRIISGLSEGVIVVQGKEKSGSLITAYQALEQGREVFAVPGSLFDPYAGGPIKLIQQGAKAIWSAEDIFEELPERNVQYTEPF
B1 yielded an activation of RecAEco (5 uM) dATP hydrolysis on (dT)21 by 0.3 uM DprABsu, against RecAEco alone of 7 to 8 fold.
